± gives the standard deviation of the averaged measurements.
Test system: Saccharomyces cerevisiae
Test: protein stability index of tFT-peptide fusion (C-terminal peptide) (PSI (0-1 scale)); higher = more stable (slower turnover)
Conditions: genetic background: cdc34-1; temperature: 37 C
Procedure: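 MPS profiling in S. cerevisiae of the tFT-X12 degron library: putative degron peptides plus stable controls, 12 aa, fused to the C-terminus of a sfGFP-mCherry timer. Cells are FACS-sorted into 8 mCherry/sfGFP bins and deep-sequenced. PSI runs from 0 (unstable) to 1 (stable). Backgrounds are wild type, das1Δ and doa10Δ at 30 °C, and wild type, das1Δ, cdc34-1 and cdc53-1 at 37 °C; 2-3 technical replicates each.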
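Also: PSI is a weighted mean of sequencing reads over stability bins, variants kept only with over 10 reads, mCherry proximal and sfGFP distal, peptide attached via GGGS linker.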

| Sequence | protein stability index |
| --- | --- |
| SVSRIFRTFSCY | 0.627 ± 0.023 |
| SVVYVIYCGGIL | 0.446 ± 0.0082 |
| SWLAQCVVISLL | 0.634 ± 0.015 |
| TALSRLFECFLS | 0.654 ± 0.052 |
| TCGAKWIFSHIC | 0.6 ± 0.054 |
| TFVGWIVWLCGS | 0.537 ± 0.026 |
| TFVLREYVWVMS | 0.443 ± 0.049 |
| TIKGRLNVRKIE | 0.653 ± 0.055 |
| TPYIFVLACLHV | 0.395 ± 0.0014 |
| TRKKENERRKNG | 0.653 ± 0.032 |
| TSFCIFFVRFVI | 0.374 ± 0.059 |
| TVETYNRARKAS | 0.663 ± 0.0089 |
| TVVIFLCSYITT | 0.183 ± 0.06 |
| TYNVMFSPWRKA | 0.604 ± 0.07 |
| TYYPLNRSRFIG | 0.5858 ± 0.0048 |
| VAALFPPLRFLN | 0.554 ± 0.0075 |
| VCFAWWGARCVA | 0.601 ± 0.01 |
| VCFFLFWCLSFS | 0.4239 ± 0.0013 |
| VCLCVIICSMSV | 0.0201 ± 0.00092 |
| VCQVCVCFLFWR | 0.0977 ± 0.0034 |
| VCVVVLVGVVFL | 0.188 ± 0.031 |
| VELRNCYLLVKA | 0.204 ± 0.0059 |
| VFFLAFYFYRCF | 0.405 ± 0.02 |
| VFMSVAPVSVLG | 0.115 ± 0.047 |
| VFSAIPDWLILA | 0.492 ± 0.017 |
| VFSVTVVFVSVL | 0.158 ± 0.0021 |

| Sequence | protein stability index |
| --- | --- |
| VFVGGVSVLILF | 0.531 ± 0.051 |
| VFWLLVGLGCFS | 0.561 ± 0.017 |
| VFYWVGVLCGWG | 0.298 ± 0.0073 |
| VGCMVVIWVLWG | 0.153 ± 0.0096 |
| VGFCICISIMSF | 0.0373 ± 0.016 |
| VGPLAPVCLLVL | 0.445 ± 0.025 |
| VILCSCSFVLRP | 0.523 ± 0.011 |
| VKIEVICRVSLI | 0.334 ± 0.031 |
| VLCFFWWWCRVC | 0.4 ± 0.021 |
| VLFVRGHTLWLM | 0.6124 ± 0.0026 |
| VLSCIPRLAIAA | 0.335 ± 0.01 |
| VLVVTAFTFSCP | 0.352 ± 0.049 |
| VLVVVRSLSFLS | 0.405 ± 0.065 |
| VNRRCWISRTLP | 0.599 ± 0.023 |
| VPASWLRMLAFC | 0.197 ± 0.0024 |
| VRFSAVFVKVGV | 0.547 ± 0.031 |
| VRIGCSLLFFLP | 0.661 ± 0.036 |
| VRSELHINSFIH | 0.656 ± 0.0076 |
| VRTFVFLVGYCE | 0.594 ± 0.032 |
| VRVFSLVVCWVV | 0.297 ± 0.064 |
| VSSSFSVLVLLF | 0.448 ± 0.017 |
| VTLVIYVLVQLT | 0.148 ± 0.062 |
| VTTTWTWTVRLC | 0.538 ± 0.045 |
| VVAALTPLITVA | 0.0655 ± 0.023 |
| VVLAFFFWFFVG | 0.359 ± 0.04 |
| VVLRCGCLVFIN | 0.419 ± 0.027 |

| Sequence | protein stability index |
| --- | --- |
| VVRMRPRLFSLY | 0.807 ± 0.04 |
| VVTFCCARVTKI | 0.665 ± 0.048 |
| VVTFLCPLVGHV | 0.527 ± 0.023 |
| VVWFCGFFFVMV | 0.386 ± 0.0054 |
| VWCVFHVWSGRL | 0.49 ± 0.035 |
| VWFVFVCAVCVL | 0.191 ± 0.029 |
| VWGLGWLVVGVG | 0.179 ± 0.0033 |
| VWPLAFFLRFFI | 0.547 ± 0.063 |
| VWSSSYVPLGVY | 0.319 ± 0.015 |
| VWWTLWRVHMLG | 0.583 ± 0.028 |
| VYCLFLPLGVAF | 0.115 ± 0.038 |
| VYCLVLFFSQWC | 0.42 ± 0.03 |
| VYFPRLLVRVSW | 0.4489 ± 0.0015 |
| WAIMGLIIFCLF | 0.309 ± 0.0083 |
| WGEAGRPAGRGA | 0.703 ± 0.032 |
| WGFLSVVCLSGV | 0.501 ± 0.029 |
| WGLGWRGALVAV | 0.417 ± 0.0089 |
| WGLPVGVESSGG | 0.712 ± 0.03 |
| WGRFFWGCGVWV | 0.631 ± 0.07 |
| WGRGYRWRIWDV | 0.708 ± 0.068 |
| WIGCTVKIASLY | 0.619 ± 0.015 |
| WLCLFRFLGVAY | 0.18 ± 0.024 |
| WLMVGVDWRFVG | 0.436 ± 0.0056 |
| WLSWATRRIVLG | 0.552 ± 0.037 |
| WLWYSPIAFTAL | 0.632 ± 0.014 |

Same assay, conditions: genetic background: cdc53-1; temperature: 37 C

| Sequence | protein stability index |
| --- | --- |
| SVSRIFRTFSCY | 0.759 ± 0.054 |
| SVVYVIYCGGIL | 0.481 ± 0.075 |
| SWFRRPFPPRLL | 0.6 ± 0.025 |
| SWLAQCVVISLL | 0.654 ± 0.014 |
| TALSRLFECFLS | 0.744 ± 0.026 |
| TCGAKWIFSHIC | 0.754 ± 0.011 |
| TFVGWIVWLCGS | 0.621 ± 0.0073 |
| TFVLREYVWVMS | 0.425 ± 0.011 |
| TIKGRLNVRKIE | 0.7066 ± 0.0065 |
| TPYIFVLACLHV | 0.476 ± 0.0062 |
| TRKKENERRKNG | 0.7213 ± 0.0044 |
| TSFCIFFVRFVI | 0.478 ± 0.021 |
| TVETYNRARKAS | 0.674 ± 0.014 |
| TVVIFLCSYITT | 0.24 ± 0.11 |
| TYNVMFSPWRKA | 0.7064 ± 0.005 |
| TYYPLNRSRFIG | 0.7261 ± 0.0025 |
| VAALFPPLRFLN | 0.711 ± 0.008 |
| VCFAWWGARCVA | 0.619 ± 0.0063 |
| VCFFLFWCLSFS | 0.479 ± 0.021 |
| VCLCVIICSMSV | 0.041 ± 0.019 |
| VCQVCVCFLFWR | 0.0539 ± 0.0021 |
| VCVVVLVGVVFL | 0.3491 ± 0.0012 |
| VELRNCYLLVKA | 0.282 ± 0.013 |
| VFFLAFYFYRCF | 0.464 ± 0.018 |
| VFMSVAPVSVLG | 0.118 ± 0.045 |
| VFSAIPDWLILA | 0.5094 ± 0.0035 |

| Sequence | protein stability index |
| --- | --- |
| VFSVTVVFVSVL | 0.271 ± 0.062 |
| VFVGGVSVLILF | 0.638 ± 0.0089 |
| VFWLLVGLGCFS | 0.563 ± 0.013 |
| VFYWVGVLCGWG | 0.391 ± 0.045 |
| VGCMVVIWVLWG | 0.225 ± 0.025 |
| VGFCICISIMSF | 0.109 ± 0.025 |
| VGPLAPVCLLVL | 0.4817 ± 0.0043 |
| VILCSCSFVLRP | 0.583 ± 0.023 |
| VKIEVICRVSLI | 0.459 ± 0.028 |
| VLCFFWWWCRVC | 0.525 ± 0.038 |
| VLFVRGHTLWLM | 0.675 ± 0.01 |
| VLSCIPRLAIAA | 0.372 ± 0.019 |
| VLVVTAFTFSCP | 0.4393 ± 0.00063 |
| VLVVVRSLSFLS | 0.51 ± 0.011 |
| VNRRCWISRTLP | 0.716 ± 0.0041 |
| VPASWLRMLAFC | 0.578 ± 0.025 |
| VRFSAVFVKVGV | 0.553 ± 0.0091 |
| VRIGCSLLFFLP | 0.734 ± 0.014 |
| VRSELHINSFIH | 0.767 ± 0.017 |
| VRTFVFLVGYCE | 0.62 ± 0.024 |
| VRVFSLVVCWVV | 0.359 ± 0.0043 |
| VSSSFSVLVLLF | 0.545 ± 0.035 |
| VTLVIYVLVQLT | 0.198 ± 0.11 |
| VTTTWTWTVRLC | 0.631 ± 0.016 |
| VVAALTPLITVA | 0.084 ± 0.0042 |
| VVLAFFFWFFVG | 0.518 ± 0.028 |

| Sequence | protein stability index |
| --- | --- |
| VVLRCGCLVFIN | 0.5767 ± 0.0053 |
| VVRMRPRLFSLY | 0.8659 ± 0.0019 |
| VVTFCCARVTKI | 0.6997 ± 0.0057 |
| VVTFLCPLVGHV | 0.501 ± 0.0074 |
| VVWFCGFFFVMV | 0.449 ± 0.029 |
| VWCVFHVWSGRL | 0.585 ± 0.016 |
| VWFVFVCAVCVL | 0.298 ± 0.015 |
| VWGLGWLVVGVG | 0.218 ± 0.029 |
| VWPLAFFLRFFI | 0.6021 ± 0.0019 |
| VWSSSYVPLGVY | 0.326 ± 0.066 |
| VWWTLWRVHMLG | 0.644 ± 0.0072 |
| VYCLFLPLGVAF | 0.175 ± 0.072 |
| VYCLVLFFSQWC | 0.484 ± 0.011 |
| VYFPRLLVRVSW | 0.472 ± 0.017 |
| WAIMGLIIFCLF | 0.363 ± 0.031 |
| WGEAGRPAGRGA | 0.758 ± 0.026 |
| WGFLSVVCLSGV | 0.5235 ± 0.0052 |
| WGLGWRGALVAV | 0.42 ± 0.017 |
| WGLPVGVESSGG | 0.761 ± 0.021 |
| WGRFFWGCGVWV | 0.7128 ± 0.0035 |
| WGRGYRWRIWDV | 0.772 ± 0.018 |
| WIGCTVKIASLY | 0.67 ± 0.018 |
| WLCLFRFLGVAY | 0.245 ± 0.04 |
| WLMVGVDWRFVG | 0.6254 ± 0.0043 |
| WLSWATRRIVLG | 0.611 ± 0.019 |
| WLWYSPIAFTAL | 0.764 ± 0.041 |

— the supplement of paper PMC10724198
